Measured values as given in paper PMC5581047.

Biological target: GST-ERα (179-312), C/D domains (UniProt P03372)
Assay: pull-down; GST-ERα domains or full length bound to glutathione-Sepharose 4B beads, incubated with recombinant Api5 protein; Western blot

percent of the binding of Api5 to full length GST-ERα (1-595): > 60%
B1: Recombinant Api5 protein (natural protein)
chain: MPTVEELYRNYGILADATEQVGQHKDAYQVILDGVKGGTKEKRLAAQFIPKFFKHFPELADSAINAQLDLCEDEDVSIRRQAIKELPQFATGENLPRVADILTQLLQTDDSAEFNLVNNALLSIFKMDAKGTLGGLFSQILQGEDIVRERAIKFLSTKLKTLPDEVLTKEVEELILTESKKVLEDVTGEEFVLFMKILSGLKSLQTVSGRQQLVELVAEQADLEQTFNPSDPDCVDRLLQCTRQAVPLFSKNVHSTRFVTYFCEQVLPNLGTLTTPVEGLDIQLEVLKLLAEMSSFCGDMEKLETNLRKLFDKLLEYMPLPPEEAENGENAGNEEPKLQFSYVECLLYSFHQLGRKLPDFLTAKLNAEKLKDFKIRLQYFARGLQVYIRQLRLALQGKTGEALKTEENKIKVVALKITNNINVLIKDLFHIPPSYKSTVTLSWKPVQKVEIGQKRASEDTTSGSPPKKSSAGPKRDARQIYNPPSGKYSSNLGNFNYEQRGAFRGSRGGRGWGTRGNRSRGRLY
